Results reported in publication PMC10776578, “Epstein-Barr virus-driven B cell lymphoma mediated by a direct LMP1-TRAF6 complex” (Nature Communications, 2024).
“Also recorded” adds a separate entry of the source.

B1: R392A (protein, UniProt Q9Y4K3 1-522, looked up, variant R392A)
TNF receptor-associated …: MSLLNCENSCGSSQSESDCCVAMASSCSAVTKDDSVGGTASTGNLSSSFMEEIQGYDVEFDPPLESKYECPICLMALREAVQTPCGHRFCKACIIKSIRDAGHKCPVDNEILLENQLFPDNFAKREILSLMVKCPNEGCLHKMELRHLEDHQAHCEFALMDCPQCQRPFQKFHINIHILKDCPRRQVSCDNCAASMAFEDKEIHDQNCPLANVICEYCNTILIREQMPNHYDLDCPTAPIPCTFSTFGCHEKMQRNHLARHLQENTQSHMRMLAQAVHSLSVIPDSGYISEVRNFQETIHQLEGRLVRQDHQIRELTAKMETQSMYVSELKRTIRTLEDKVAEIEAQQCNGIYIWKIGNFGMHLKCQEEEKPVVIHSPGFYTGKPGYKLCMALHLQLPTAQRCANYISLFVHTMQGEYDSHLPWPFQGTIRLTILDQSEAPVRQNHEEIMDAKPELLAFQRPTIPRNPKGFGYVTFMHLEALRQRTFIKDDTLLVRCEVSTRFDMGSLRREGFQPRSTDAGV
B2: F471A (protein, UniProt Q9Y4K3 1-522, looked up, variant F471A)
TNF receptor-associated …: MSLLNCENSCGSSQSESDCCVAMASSCSAVTKDDSVGGTASTGNLSSSFMEEIQGYDVEFDPPLESKYECPICLMALREAVQTPCGHRFCKACIIKSIRDAGHKCPVDNEILLENQLFPDNFAKREILSLMVKCPNEGCLHKMELRHLEDHQAHCEFALMDCPQCQRPFQKFHINIHILKDCPRRQVSCDNCAASMAFEDKEIHDQNCPLANVICEYCNTILIREQMPNHYDLDCPTAPIPCTFSTFGCHEKMQRNHLARHLQENTQSHMRMLAQAVHSLSVIPDSGYISEVRNFQETIHQLEGRLVRQDHQIRELTAKMETQSMYVSELKRTIRTLEDKVAEIEAQQCNGIYIWKIGNFGMHLKCQEEEKPVVIHSPGFYTGKPGYKLCMRLHLQLPTAQRCANYISLFVHTMQGEYDSHLPWPFQGTIRLTILDQSEAPVRQNHEEIMDAKPELLAFQRPTIPRNPKGAGYVTFMHLEALRQRTFIKDDTLLVRCEVSTRFDMGSLRREGFQPRSTDAGV

Assays:
GST-RANK314-355 [1] = assay: AlphaScreen PPI, TRAF6 mutants binding to RANK; set-up: species or system human
GST-RANK314-355 [2] = assay: AlphaScreen PPI, TRAF6 mutants binding to RANK; set-up: species or system human; details: for effect of TRAF6 mutation on binding to RANK (in words): AlphaScreen PPI; for TRAF6 binding to RANK (AlphaScreen), mean / TRAF6 binding to RANK (AlphaScreen): Figure 2c; for TRAF6 binding to RANK (AlphaScreen), mean: mean of n = 4
Method: Fig. 2 LMP1 binds to the receptor-interacting surface of TRAF6. a Mutations within the receptor-interacting surface of TRAF6 affect binding to LMP1. The TRAF6 mutants R392A, K469A, F471A, and Y473A were tested LMP1 in AlphaScreen PPI experiments with GST-LMP1_181-386. Data are mean values ± SD of three independent experiments. Statistics: one-way ANOVA. b TRAF6 R392A differentiates between CD40 and LMP1/RANK. AlphaScreen PPI experiments with GST-CD40_216-277. Data are mean values ± SD of three independent experiments. […] AlphaScreen PPI experiments with GST-RANK314-355. Data are mean values ± SD of four independent experiments. Statistics: one-way ANOVA. d TRAF6 mutants that fail to interact with LMP1 in PPI assays are also unable to bind cellular LMP1. HEK293 cells were co-transfected with HA-LMP1 and the indicated Flag-TRAF6 mutants. Flag-TRAF6 was immunoprecipitated (IP) via its Flag-tag and coprecipitated HA-LMP1 was detected on immunoblots by an α-HA antibody. Uncropped blots in Supplementary Fig. 6b. For statistical analysis LMP1 signals were digitalized and quantified (graph). Data are mean values ± SD of three independent experiments. […] TRAF6 recruitment is dependent on amino acids 371 − 386 of LMP1 (small panel). Confocal microscopy images show representative cells of three independent experiments. Quantitative data are mean values ± SD of ten randomly selected cells per transfection of one representative experiment (graph). Scale bars: 10 µm. Statistics: one-way ANOVA. p-values: *p ≤ 0.05, **p ≤ 0.01, ***p ≤ 0.001, ****p ≤ 0.0001. Source data and exact p-values in the Source Data file.
AlphaScreen experiments were performed in 96- or 384-well plates (Perkin Elmer, OptiPlate). In both assay formats, His-TRAF and GST-LMP1, GST-CD40, or GST-RANK proteins were incubated together in 40 µL of PBS (protein concentrations were calculated to the final reaction volume of 60 µL) supplemented with 0.5% BSA (Sigma, #A7030) and 0.1% Tween-20 (AppliChem, #A4974), for 1 h at room temperature (RT). If not indicated otherwise, standard protein concentrations were 300 nM for His-TRAF proteins and 100 nM for GST-LMP1 proteins. Ni-NTA-acceptor (Perkin Elmer, #6760619 C) and GST-acceptor (Perkin Elmer, # 6765300) beads were added each to a final concentration of 1–4 µg per mL in a final reaction volume of 60 µL and incubated for 1 h at RT in the dark. AlphaScreen PPI signals were measured in a CLARIOstar reader (BMG Labtech GmbH).

Molecule	effect of TRAF6 mutation on binding to RANK (in words) (GST-RANK314-355 [1]; listed as TRAF6 R392A)	effect of TRAF6 mutation on binding to RANK (in words) (GST-RANK314-355 [2])	TRAF6 binding to RANK (AlphaScreen), mean (GST-RANK314-355 [2])	TRAF6 binding to RANK (AlphaScreen) (GST-RANK314-355 [2]; replicate 1)	TRAF6 binding to RANK (AlphaScreen) (GST-RANK314-355 [2]; replicate 2)	TRAF6 binding to RANK (AlphaScreen) (GST-RANK314-355 [2]; replicate 3)	TRAF6 binding to RANK (AlphaScreen) (GST-RANK314-355 [2]; replicate 4)	effect of TRAF6 mutation on binding to RANK (in words) (GST-RANK314-355 [1]; listed as Y471A)
B1	do not interact	do not bind to RANK; also recorded: prevented the interaction of TRAF6 with LMP1 and RANK	0.1	0.1	0.1	0.1	0.1	
B2		do not interact	0.725	0.2	0.4	0.2	2.1	abolished the interaction of TRAF6 with RANK; also recorded: do not bind to RANK
